# Experimental data: patent publication US20190142971A1, “FORMULATION AND DELIVERY OF MODIFIED NUCLEOSIDE, NUCLEOTIDE, AND NUCLEIC ACID COMPOSITIONS” (ModernaTX, Inc., priority 2013, published 2019)
# B1: EPO: modified mRNA encoding human erythropoietin, SEQ ID NO: 7, Cap1, fully modified with 5-methylcytosine and pseudouridine; LNP NPA-060-1 in Examples 17-22 (nucleic acid)
# chain: GGGAAAUAAGAGAGAAAAGAAGAGUAAGAAGAAAUAUAAGAGCCACCAUGGGAGUGCACGAGUGUCCCGCGUGGUUGUGGUUGCUGCUGUCGCUCUUGAGCCUCCCACUGGGACUGCCUGUGCUGGGGGCACCACCCAGAUUGAUCUGCGACUCACGGGUACUUGAGAGGUACCUUCUUGAAGCCAAAGAAGCCGAAAACAUCACAACCGGAUGCGCCGAGCACUGCUCCCUCAAUGAGAACAUUACUGUACCGGAUACAAAGGUCAAUUUCUAUGCAUGGAAGAGAAUGGAAGUAGGACAGCAGGCCGUCGAAGUGUGGCAGGGGCUCGCGCUUUUGUCGGAGGCGGUGUUGCGGGGUCAGGCCCUCCUCGUCAACUCAUCACAGCCGUGGGAGCCCCUCCAACUUCAUGUCGAUAAAGCGGUGUCGGGGCUCCGCAGCUUGACGACGUUGCUUCGGGCUCUGGGCGCACAAAAGGAGGCUAUUUCGCCGCCUGACGCGGCCUCCGCGGCACCCCUCCGAACGAUCACCGCGGACACGUUUAGGAAGCUUUUUAGAGUGUACAGCAAUUUCCUCCGCGGAAAGCUGAAAUUGUAUACUGGUGAAGCGUGUAGGACAGGGGAUCGCUGAUAAGCUGCCUUCUGCGGGGCUUGCCUUCUGGCCAUGCCCUUCUUCUCUCCCUUGCACCUGUACCUCUUGGUCUUUGAAUAAAGCCUGAGUAGGAAG
# modifications: Cap1, 5-methylcytosine, pseudouridine
# Assays:
# Type in all cases: in vivo
# [1] = tested on: non-human primates (cynomolgus monkey); assay: Example 22: NHP serum chemistry ALT and AST (Tables 45, 46); conditions: 0.5 mg/kg
# Sprague-Dawley rats = assay: Example 35: duration after IM EPO mRNA in rats, serum EPO (Table 61); conditions: rats IM 100 μg;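 also: serum concentration in pg/mL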
# Description: The rats were bled 2, 6, 12, 24, 48 and 72 hours after the intramuscular injection to determine the concentration of human EPO in serum at a given time.
# rats = assay: Example 17: LNP IV, IM, SC in rats, serum EPO/G-CSF ELISA (Table 34); conditions: for EPO / G-CSF Serum Concentration: LNP 0.05 mg/kg
# Description: (§1) Formulations, listed in Table 33, were characterized by particle size, zeta potential, and encapsulation.
# LNP formulations, shown in Table 33 (above), were administered to rats (n=5) intravenously (IV), intramuscularly (IM) or subcutaneously (SC) at a single modified mRNA dose of 0.05 mg/kg. A control group of rats (n=4) was untreated. […] The rats administered EPO modified mRNA intravenously were also bled at 7 days.
# [2] = tested on: non-human primates (cynomolgus monkey); assay: Example 22: NHP cytokine interferon-alpha (Table 47)
# Description: LNP formulations, shown in Table 33 (above), were administered to non-human primates (NHP) (cynomolgus monkey) (n=2) as intravenous injection (IV). The NHP were administered a single modified mRNA IV dose of 0.5 mg/kg, 0.05 mg/kg or 0.005 mg/kg of G-CSF or EPO in a dose volume of 0.5 mL/kg. The NHPs were bled before dosing with the modified mRNA LNP formulations to determine protein expression in the serum and a baseline complete blood count. After administration with the G-CSF modified mRNA formulation the NHP were bled at 8, 24, 48 and 72 hours to determined protein expression. After administration with the EPO modified mRNA formulation the NHP were bled at 8, 24, 48, 72 hours and 7 days to determined protein expression.
# mice = assay: Example 18: time course LNP IV in mice, serum EPO/G-CSF ELISA (Table 35); conditions: for protein expression detectable out to: mice IV; for EPO / G-CSF Serum Concentration: mice, LNP IV
# Description: as §1
# LNP formulations, shown in Table 33 (above), were administered to mice (n=5) intravenously (IV) at a single modified mRNA dose of 0.5, 0.05 or 0.005 mg/kg. The mice were bled at 8 hours, 24 hours, 72 hours and 6 days after they were administered with G-CSF or EPO modified mRNA formulations to determine protein expression using ELISA.
molecule,measurement,setting,value
B1,ALT,"[1]; 14 days, Male NHP",88 U/L
same,AST,"[1]; 14 days, Male NHP",82 U/L
same,ALT,"[1]; Pre-dose, Female NHP",31 U/L
same,AST,"[1]; Pre-dose, Female NHP",20 U/L
same,ALT,"[1]; Pre-dose, Male NHP",50 U/L
same,AST,"[1]; Pre-dose, Male NHP",59 U/L
same,"human EPO in serum, Avg.",Sprague-Dawley rats; 2 hour,59.6 pg/mL
same,"human EPO in serum, Geometric-mean",Sprague-Dawley rats; 2 hour,58.2 pg/mL
same,"human EPO in serum, Avg.",Sprague-Dawley rats; 6 hour,68.6 pg/mL
same,"human EPO in serum, Geometric-mean",Sprague-Dawley rats; 6 hour,55.8 pg/mL
same,"human EPO in serum, Avg.",Sprague-Dawley rats; 12 hour,87.4 pg/mL
same,"human EPO in serum, Geometric-mean",Sprague-Dawley rats; 12 hour,84.5 pg/mL
same,"human EPO in serum, Avg.",Sprague-Dawley rats; 24 hour,108.6 pg/mL
same,"human EPO in serum, Geometric-mean",Sprague-Dawley rats; 24 hour,95.3 pg/mL
same,"human EPO in serum, Avg.",Sprague-Dawley rats; 48 hour,77.9 pg/mL
same,"human EPO in serum, Geometric-mean",Sprague-Dawley rats; 48 hour,77.0 pg/mL
same,"human EPO in serum, Avg.",Sprague-Dawley rats; 72 hour,80.1 pg/mL
same,"human EPO in serum, Geometric-mean",Sprague-Dawley rats; 72 hour,75.8 pg/mL
same,protein expression detectable out to,rats; IV,5 days
same,EPO / G-CSF Serum Concentration,"rats; IM, 2 hours",1395.4 pg/mL
same,EPO / G-CSF Serum Concentration,"rats; IM, 8 hours",8974.6 pg/mL
same,EPO / G-CSF Serum Concentration,"rats; IM, 24 hours",4678.3 pg/mL
same,EPO / G-CSF Serum Concentration,"rats; IV, 2 hours","36,981.0 pg/ml"
same,EPO / G-CSF Serum Concentration,"rats; IV, 8 hours","62,053.3 pg/ml"
same,EPO / G-CSF Serum Concentration,"rats; IV, 24 hours","42,077.0 pg/ml"
same,EPO / G-CSF Serum Concentration,"rats; IV, 48 hours","5,561.5 pg/ml"
same,EPO / G-CSF Serum Concentration,"rats; IV, 5 days",0.0 pg/mL
same,EPO / G-CSF Serum Concentration,"rats; IV, 7 days",0.0 pg/mL
same,EPO / G-CSF Serum Concentration,"rats; SC, 2 hours",386.2 pg/mL
same,EPO / G-CSF Serum Concentration,"rats; SC, 8 hours",985.6 pg/mL
same,EPO / G-CSF Serum Concentration,"rats; SC, 24 hours",544.2 pg/mL
same,protein expression detectable to,rats; subcutaneous and intramuscular,at least 24 hours
same,IFN-alpha,"[2]; 0.005 mg/kg, 4 days, Female NHP",0 pg/mL
same,IFN-alpha,"[2]; 0.005 mg/kg, 4 days, Male NHP",0 pg/mL
same,IFN-alpha,"[2]; 0.005 mg/kg, Day 1 + 8 hr, Female NHP",0 pg/mL
same,IFN-alpha,"[2]; 0.005 mg/kg, Day 1 + 8 hr, Male NHP",0 pg/mL
same,IFN-alpha,"[2]; 0.005 mg/kg, Pre-dose, Female NHP",0 pg/mL
same,IFN-alpha,"[2]; 0.005 mg/kg, Pre-dose, Male NHP",0 pg/mL
same,IFN-alpha,"[2]; 0.05 mg/kg, 4 days, Female NHP",0 pg/mL
same,IFN-alpha,"[2]; 0.05 mg/kg, 4 days, Male NHP",0 pg/mL
same,IFN-alpha,"[2]; 0.05 mg/kg, Day 1 + 8 hr, Female NHP",0 pg/mL
same,IFN-alpha,"[2]; 0.05 mg/kg, Day 1 + 8 hr, Male NHP",0 pg/mL
same,IFN-alpha,"[2]; 0.05 mg/kg, Pre-dose, Female NHP",0 pg/mL
same,IFN-alpha,"[2]; 0.05 mg/kg, Pre-dose, Male NHP",0 pg/mL
same,IFN-alpha,"[2]; 0.5 mg/kg, 4 days, Female NHP",0 pg/mL
same,IFN-alpha,"[2]; 0.5 mg/kg, 4 days, Male NHP",0 pg/mL
same,IFN-alpha,"[2]; 0.5 mg/kg, Day 1 + 8 hr, Female NHP",217.5 pg/mL
same,IFN-alpha,"[2]; 0.5 mg/kg, Day 1 + 8 hr, Male NHP",16.79 pg/mL
same,IFN-alpha,"[2]; 0.5 mg/kg, Pre-dose, Female NHP",0 pg/mL
same,IFN-alpha,"[2]; 0.5 mg/kg, Pre-dose, Male NHP",0 pg/mL
same,protein expression detectable out to,mice,6 days
same,protein expression detectable out to,mice; 0.005 mg/kg and 0.05 mg/kg,3 days
same,EPO / G-CSF Serum Concentration,"mice; 0.005 mg/kg, 8 hours","12,508.3 pg/ml"
same,EPO / G-CSF Serum Concentration,"mice; 0.005 mg/kg, 24 hours","6,803.0 pg/ml"
same,EPO / G-CSF Serum Concentration,"mice; 0.05 mg/kg, 8 hours","92,139.9 pg/ml"
same,EPO / G-CSF Serum Concentration,"mice; 0.05 mg/kg, 24 hours","54,389.4 pg/ml"
same,EPO / G-CSF Serum Concentration,"mice; 0.5 mg/kg, 8 hours","498,515.3 pg/ml"
same,EPO / G-CSF Serum Concentration,"mice; 0.5 mg/kg, 24 hours","160,566.3 pg/ml"
same,EPO / G-CSF Serum Concentration,"mice; 0.5 mg/kg, 72 hours","3,492.5 pg/ml"
same,EPO / G-CSF Serum Concentration,"mice; 0.5 mg/kg, 6 days",21.2 pg/mL
